The record followed here is US20260092093A1 (TJ BIOPHARMA SHANGHAI, published 2026).

Usually Kd stands for a measure of binding affinity in units of concentration. The low end stands for higher affinity, the high end for lower affinity. In general, koff refers to a measure of how fast the partners let go of each other. Low values mean a long-lived complex, high ones a short-lived complex. By kon is commonly meant the second-order rate constant of association. A high value points to faster complex formation.

For assay [1], the target named is T1, recombinant hIL-18Rα extracellular domain (human, UniProt Q13478 22-329, biotin label (selection) or fluorescent probe (single-clone FACS), sites not given).
T1 construct: extracellular domain; also called hIL-18Rα ECD; hIL-18Rα-ECD
T1 sequence (looked up): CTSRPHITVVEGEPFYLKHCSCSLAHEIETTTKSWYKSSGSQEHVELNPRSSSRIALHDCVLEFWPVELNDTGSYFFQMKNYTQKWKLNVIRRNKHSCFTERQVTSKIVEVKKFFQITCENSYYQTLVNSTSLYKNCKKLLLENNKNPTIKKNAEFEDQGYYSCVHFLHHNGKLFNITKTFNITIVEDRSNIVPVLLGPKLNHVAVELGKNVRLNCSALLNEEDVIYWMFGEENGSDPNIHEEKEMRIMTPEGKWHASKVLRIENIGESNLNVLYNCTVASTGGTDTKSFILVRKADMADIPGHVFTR
Briefly: single-clone FACS, yeast display, 10 nM labelled hIL-18Rα ECD. The essentials: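 Yeast clones displaying IL-18 variants (screening rounds 4 and 5), at equal density, incubated with 10 nM fluorescently labelled hIL-18Rα ECD, then washed. Fraction of fluorescence-positive binding cells per clone measured by flow cytometry.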

Assay [2] concerns the target T2, hIL-18Rα ECD-Fc fusion protein (human, UniProt Q13478 22-329).
T2 construct: extracellular domain; captured on Protein A sensor
T2 sequence (looked up): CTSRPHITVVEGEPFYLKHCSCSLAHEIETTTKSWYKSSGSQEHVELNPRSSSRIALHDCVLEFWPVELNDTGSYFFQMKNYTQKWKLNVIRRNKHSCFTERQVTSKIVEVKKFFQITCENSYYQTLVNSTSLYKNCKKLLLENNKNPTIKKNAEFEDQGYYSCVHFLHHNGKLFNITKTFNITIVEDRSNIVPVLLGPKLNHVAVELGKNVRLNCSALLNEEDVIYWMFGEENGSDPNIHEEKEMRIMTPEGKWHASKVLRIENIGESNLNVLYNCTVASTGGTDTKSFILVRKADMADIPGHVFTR
The experiment in a line: BLI (Octet RED96), hIL-18Rα ECD-Fc on Protein A sensor. The protocol:
The affinities of IL-18 variant polypeptides for hIL-18Rα were assessed by Biolayer Interferometry (BLI) on Octet RED96 using Protein A sensor coated with hIL-18Rα ECD-Fc fusion protein, and WT hIL-18 was used as a control.
On the technique in general: Biolayer interferometry detects binding as a change in optical thickness at a sensor tip.

B1: IL-18 variant polypeptide M14 (ligand)
chain: YFNKLKSKLSVIRNLNDQVLFIDQGNRPLFEDMTDSDCRDNAPRTIFIISMYKPSSSRGMAVTISVKCEKISTLSCENKIISFKEMNPPDRIKDTKSDIIFFQASVPGHDNKMQFESSSYEGYFLACEKERDLFKLILKKEDELGDRSIMFTVQNED
With B1, in assay [1], the “% of fluorescence positive cells” value is 88.3%. Also, in assay [2], the Kd came out at 23.6 nM, the “Response (nm)” value was found to be 0.218 nm, the koff worked out at 0.00588 s⁻¹ and the kon came to 250000 M⁻¹ s⁻¹.

B2: IL-18 variant polypeptide M21 (ligand)
chain: YFPKLRSKLSVIRNLNDQVLFIDQGNRPLFEDMTDSDCRDNAPRTIFIISMYKSSSTRGMAVTISVKCEKISTLSCENKIISFKEMNPPDGIKDTKSDIIFFQSSVPGHDNKMQFESSSYEGYFLACEKERDLFKLILKKEDELGDRSIMFTVQNED
For B2, the “% of fluorescence positive cells” value in assay [1] was determined as 89.9%. Besides, in assay [2], the Kd is 64.9 nM, the “Response (nm)” value came to 0.0791 nm, the koff stood at 0.0221 s⁻¹ and the kon worked out at 340000 M⁻¹ s⁻¹.

B3: IL-18 variant polypeptide M19 (ligand)
chain: YFPKLKSKLSVIRNLNDQVLFIDQGNRPLFEDMTDSDCRDNAPRTIFIISMYKHSEQRGMAVTISVKCEKISTLSCENKIISFKEMNPPDAIKDTKSDIIFFQRSVPGHDNKMQFESSSYEGYFLACEKERDLFKLILKKEDELGDRSIMFTVQNED
On to B3, for which the “% of fluorescence positive cells” value in assay [1] was found to be 90%. In assay [2], the Kd came to 112 nM, the “Response (nm)” value was 0.025 nm, the koff amounted to 0.0554 s⁻¹ and the kon stood at 495000 M⁻¹ s⁻¹.

B4: IL-18 variant polypeptide M18 (ligand)
chain: YFPKLRSKLSVIRNLNDQVLFIDQGNRPLFEDMTDSDCRDNAPRTIFIISMYKSSRRRGMAVTISVKCEKISTLSCENKIISFKEMNPPDGIKDTKSDIIFFQSSVPGHDNKMQFESSSYEGYFLACEKERDLFKLILKKEDELGDRSIMFTVQNED
Regarding B4, the “% of fluorescence positive cells” value in assay [1] came to 80.9%. Also, in assay [2], the affinity, expressed as Kd, was 33.1 nM; the “Response (nm)” value is 0.173 nm; the koff was 0.0134 s⁻¹; the kon stood at 404000 M⁻¹ s⁻¹.

B5: IL-18 variant polypeptide M15 (ligand)
chain: YFPKLRSKLSVIRNLNDQVLFIDQGNRPLFEDMTDSDCRDNAPRTIFIISMYKSSYTRGMAVTISVKCEKISTLSCENKIISFKEMNPPDGIKDTKSDIIFFQRSVPGHDNKMQFESSSYEGYFLACEKERDLFKLILKKEDELGDRSIMFTVQNED
With B5, the “% of fluorescence positive cells” value in assay [1] amounted to 95%. Also, in assay [2], the affinity, expressed as Kd, was 36.7 nM; the “Response (nm)” value is 0.122 nm; the koff was 0.0183 s⁻¹; the kon amounted to 499000 M⁻¹ s⁻¹.

B6: IL-18 variant polypeptide M26 (ligand)
chain: YFPKLRSKLSVIRNLNDQVLFIDQGNRPLFEDMTDSDCRDNAPRTIFIISMYKHSDKRGMAVTISVKCEKISTLSCENKIISFKEMNPPDVIKDTKSDIIFFQYSVPGHDNKMQFESSSYEGYFLACEKERDLFKLILKKEDELGDRSIMFTVQNED
B6: the “% of fluorescence positive cells” value in assay [1] was determined as 96.7%. In assay [2], the Kd came to 57.1 nM, the “Response (nm)” value stood at 0.0917 nm, the dissociation rate constant (koff) came to 0.0119 s⁻¹ and the association rate constant (kon) came to 207000 M⁻¹ s⁻¹.

B7: IL-18 variant polypeptide M20 (ligand)
chain: YFPKLRSKLSVIRNLNDQVLFIDQGNRPLFEDMTDSDCRDNAPRTIFIISMYKSSRSRGMAVTISVKCEKISTLSCENKIISFKEMNPPDGIKDTKSDIIFFQSSVPGHDNKMQFESSSYEGYFLACEKERDLFKLILKKEDELGDRSIMFTVQNED
Regarding B7, the “% of fluorescence positive cells” value in assay [1] was found to be 86.2%. Besides, in assay [2], the Kd was found to be 35.1 nM, the “Response (nm)” value was 0.136 nm, the off-rate (koff) was determined as 0.0167 s⁻¹ and the kon came to 476000 M⁻¹ s⁻¹.

B8: IL-18 variant polypeptide M25 (ligand)
chain: YFPKLRSKLSVIRNLNDQVLFIDQGNRPLFEDMTDSDCRDNAPRTIFIISMYKLSTTRGMAVTISVKCEKISTLSCENKIISFKEMNPPDRIKDTKSDIIFFQRSVPGHDNKMQFESSSYEGYFLACEKERDLFKLILKKEDELGDRSIMFTVQNED
For the molecule B8, the “% of fluorescence positive cells” value in assay [1] worked out at 1.41%. Also, in assay [2], the Kd worked out at 44.1 nM, the “Response (nm)” value came to 0.0798 nm, the koff stood at 0.0256 s⁻¹ and the kon was found to be 581000 M⁻¹ s⁻¹.

B9: IL-18 variant polypeptide M28 (ligand)
chain: YFPKLASKLSVIRNLNDQVLFIDQGNRPLFEDMTDSDCRDNAPRTIFIISMYKWSGGRGMAVTISVKCEKISTLSCENKIISFKEMNPPDVIKDTKSDIIFFQYSVPGHDNKMQFESSSYEGYFLACEKERDLFKLILKKEDELGDRSIMFTVQNED
Consider B9, for which the “% of fluorescence positive cells” value in assay [1] came out at 83.4%. For the same molecule, in assay [2], binding was put at a Kd of 30.4 nM, the “Response (nm)” value is 0.178 nm, the koff is 0.00966 s⁻¹ and the kon worked out at 318000 M⁻¹ s⁻¹.

B10: IL-18 variant polypeptide M23 (ligand)
chain: YFPKLRSKLSVIRNLNDQVLFIDQGNRPLFEDMTDSDCRDNAPRTIFIISMYKYSTRRGMAVTISVKCEKISTLSCENKIISFKEMNPPDNIKDTKSDIIFFQRSVPGHDNKMQFESSSYEGYFLACEKERDLFKLILKKEDELGDRSIMFTVQNED
As for B10, the “% of fluorescence positive cells” value in assay [1] was 2.36%. In assay [2], binding was characterised by a dissociation constant (Kd) of 368 nM, the “Response (nm)” value was determined as 0.0522 nm, the koff was found to be 0.0302 s⁻¹ and the kon amounted to 82300 M⁻¹ s⁻¹.

B11: IL-18 variant polypeptide M16 (ligand)
chain: YFPKLRSKLSVIRNLNDQVLFIDQGNRPLFEDMTDSDCRDNAPRTIFIISMYKSSRNRGMAVTISVKCEKISTLSCENKIISFKEMNPPDGIKDTKSDIIFFQSSVPGHDNKMQFESSSYEGYFLACEKERDLFKLILKKEDELGDRSIMFTVQNED
As to B11, the “% of fluorescence positive cells” value in assay [1] was 88.5%. In assay [2], the Kd amounted to 42.6 nM, the “Response (nm)” value was 0.111 nm, the koff worked out at 0.0177 s⁻¹ and the kon came to 415000 M⁻¹ s⁻¹.

B12: IL-18 variant polypeptide M29 (ligand)
chain: YFPKLMSKLSVIRNLNDQVLFIDQGNRPLFEDMTDSDCRDNAPRTIFIISMYKFSDRRGMAVTISVKCEKISTLSCENKIISFKEMNPPDPIKDTKSDIIFFQRSVPGHDNKMQFESSSYEGYFLACEKERDLFKLILKKEDELGDRSIMFTVQNED
Turning to B12, the “% of fluorescence positive cells” value in assay [1] amounted to 0.18%. In assay [2], the dissociation constant (Kd) is 83.9 nM, the “Response (nm)” value was 0.0323 nm, the koff was determined as 0.0612 s⁻¹ and the kon stood at 730000 M⁻¹ s⁻¹.

B13: IL-18 variant polypeptide M24 (ligand)
chain: YFPKLRSKLSVIRNLNDQVLFIDQGNRPLFEDMTDSDCRDNAPRTIFIISMYKYSTSRGMAVTISVKCEKISTLSCENKIISFKEMNPPDNIKDTKSDIIFFQRSVPGHDNKMQFESSSYEGYFLACEKERDLFKLILKKEDELGDRSIMFTVQNED
Turning to B13, the “% of fluorescence positive cells” value in assay [1] is 1.36%. Besides, in assay [2], the Kd was 930 nM, the “Response (nm)” value was 0.0434 nm, the koff turned out to be 0.0451 s⁻¹ and the kon is 48500 M⁻¹ s⁻¹.

B14: IL-18 variant polypeptide M17 (ligand)
chain: YFPKLRSKLSVIRNLNDQVLFIDQGNRPLFEDMTDSDCRDNAPRTIFIISMYKLSTARGMAVTISVKCEKISTLSCENKIISFKEMNPPDGIKDTKSDIIFFQRSVPGHDNKMQFESSSYEGYFLACEKERDLFKLILKKEDELGDRSIMFTVQNED
With B14, the “% of fluorescence positive cells” value in assay [1] turned out to be 87.1%. Besides, in assay [2], the affinity, expressed as Kd, was 67.7 nM; the “Response (nm)” value was found to be 0.0784 nm; the koff is 0.0231 s⁻¹; the kon turned out to be 340000 M⁻¹ s⁻¹.

B15: IL-18 variant polypeptide M30 (ligand)
chain: YFPKLLSKLSVIRNLNDQVLFIDQGNRPLFEDMTDSDCRDNAPRTIFIISMYKHSTVRGMAVTISVKCEKISTLSCENKIISFKEMNPPDSIKDTKSDIIFFQRSVPGHDNKMQFESSSYEGYFLACEKERDLFKLILKKEDELGDRSIMFTVQNED
For the molecule B15, the “% of fluorescence positive cells” value in assay [1] is 0.46%. Further, in assay [2], the equilibrium dissociation constant (Kd) was 30.2 nM, the “Response (nm)” value stood at 0.0275 nm, the off-rate (koff) is 0.0389 s⁻¹ and the on-rate (kon) worked out at 1.29e+06 M⁻¹ s⁻¹.

B16: IL-18 variant polypeptide M27 (ligand)
chain: YFPKLRSKLSVIRNLNDQVLFIDQGNRPLFEDMTDSDCRDNAPRTIFIISMYKHSYTRGMAVTISVKCEKISTLSCENKIISFKEMNPPDVIKDTKSDIIFFQYSVPGHDNKMQFESSSYEGYFLACEKERDLFKLILKKEDELGDRSIMFTVQNED
Consider B16, for which, in assay [1], the “% of fluorescence positive cells” value was found to be 77.7%. Besides, in assay [2], the Kd was 45.9 nM, the “Response (nm)” value is 0.0836 nm, the koff was found to be 0.00756 s⁻¹ and the kon worked out at 165000 M⁻¹ s⁻¹.

B17: IL-18 variant polypeptide M22 (ligand)
chain: YFPKLRSKLSVIRNLNDQVLFIDQGNRPLFEDMTDSDCRDNAPRTIFIISMYKYSRGRGMAVTISVKCEKISTLSCENKIISFKEMNPPDKIKDTKSDIIFFQSSVPGHDNKMQFESSSYEGYFLACEKERDLFKLILKKEDELGDRSIMFTVQNED
In the case of B17, the “% of fluorescence positive cells” value in assay [1] came to 4.83%. For the same molecule, in assay [2], the affinity, expressed as Kd, was 4080 nM; the “Response (nm)” value was determined as 0.0592 nm; the koff stood at 0.0398 s⁻¹; the kon amounted to 9740 M⁻¹ s⁻¹.
